Measurements reported in publication PMC10058294, “Interaction of SARS-CoV-2 Nucleocapsid Protein and Human RNA Helicases DDX1 and DDX3X Modulates Their Activities on Double-Stranded RNA” (International Journal of Molecular Sciences, 2023).

Target: T1, recombinant full-length SARS-CoV-2 nucleocapsid protein (Np) (SARS-CoV-2, UniProt P0DTC9 1-419)
T1 construct: also called N protein; recombinant Np
Test: pull-down
Conditions: both partners purified

B1: HALO-tagged recombinant full-length human DDX3X (enzyme, UniProt O00571 1-662, looked up)
chain: MSHVAVENALGLDQQFAGLDLNSSDNQSGGSTASKGRYIPPHLRNREATKGFYDKDSSGWSSSKDKDAYSSFGSRSDSRGKSSFFSDRGSGSRGRFDDRGRSDYDGIGSRGDRSGFGKFERGGNSRWCDKSDEDDWSKPLPPSERLEQELFSGGNTGINFEKYDDIPVEATGNNCPPHIESFSDVEMGEIIMGNIELTRYTRPTPVQKHAIPIIKEKRDLMACAQTGSGKTAAFLLPILSQIYSDGPGEALRAMKENGRYGRRKQYPISLVLAPTRELAVQIYEEARKFSYRSRVRPCVVYGGADIGQQIRDLERGCHLLVATPGRLVDMMERGKIGLDFCKYLVLDEADRMLDMGFEPQIRRIVEQDTMPPKGVRHTMMFSATFPKEIQMLARDFLDEYIFLAVGRVGSTSENITQKVVWVEESDKRSFLLDLLNATGKDSLTLVFVETKKGADSLEDFLYHEGYACTSIHGDRSQRDREEALHQFRSGKSPILVATAVAARGLDISNVKHVINFDLPSDIEEYVHRIGRTGRVGNLGLATSFFNERNINITKDLLDLLVEAKQEVPSWLENMAYEHHYKGSSRGRSKSSRFSGGFGARDYRQSSGASSSSFSSSRASSSRSGGGGHGSSRGFGGGGYGGFYNSDGYGGNYNSQGVDWWGN
notes: TEV site between tag and DDX3X; The helicase and EMSA assays used another construct (pET30a(+)-DDX3X, purified from ShuffleT7 E. coli); also called HALO-DDX3X; Halo-tagged DDX3X; not shown: HaloTag, N-terminal, kept
- binding result: binds
